Measured values taken from patent US20230407373A1 (priority 2020, published 2023).

Tested on: HCoV-OC43 gRNA and sgRNA
Assay type: binding
Details: for target (unweighted spectral count, OC43 Probe II capture): 36 hpi, type n_36_v, tested against no-probe control, FDR<10%; for target (unweighted spectral count, OC43 Probe II) / background (unweighted spectral count, no-probe control): type n_48_v, 48 hpi; for target (unweighted spectral count, OC43 Probe II): OC43 Probe II capture on infected cells; for background (unweighted spectral count, no-probe control): no-probe control on infected cells

| Molecule | target (unweighted spectral count, OC43 Probe II capture) | target (unweighted spectral count, OC43 Probe II) | background (unweighted spectral count, no-probe control) |
| --- | --- | --- | --- |
| DHX8 (protein, UniProt Q14562 1-1220, looked up) ATP-dependent RNA helicase …: MAVAVAMAGALIGSEPGPAEELAKLEYLSLVSKVCTELDNHLGINDKDLAEFVISLAEKNTTFDTFKASLVKNGAEFTDSLISNLLRLIQTMRPPAKPSTSKDPVVKPKTEKEKLKELFPVLCQPDNPSVRTMLDEDDVKVAVDVLKELEALMPSAAGQEKQRDAEHRDRTKKKKRSRSRDRNRDRDRDRERNRDRDHKRRHRSRSRSRSRTRERNKVKSRYRSRSRSQSPPKDRKDRDKYGERNLDRWRDKHVDRPPPEEPTIGDIYNGKVTSIMQFGCFVQLEGLRKRWEGLVHISELRREGRVANVADVVSKGQRVKVKVLSFTGTKTSLSMKDVDQETGEDLNPNRRRNLVGETNEETSMRNPDRPTHLSLVSAPEVEDDSLERKRLTRISDPEKWEIKQMIAANVLSKEEFPDFDEETGILPKVDDEEDEDLEIELVEEEPPFLRGHTKQSMDMSPIKIVKNPDGSLSQAAMMQSALAKERRELKQAQREAEMDSIPMGLNKHWVDPLPDAEGRQIAANMRGIGMMPNDIPEWKKHAFGGNKASYGKKTQMSILEQRESLPIYKLKEQLVQAVHDNQILIVIGETGSGKTTQITQYLAEAGYTSRGKIGCTQPRRVAAMSVAKRVSEEFGCCLGQEVGYTIRFEDCTSPETVIKYMTDGMLLRECLIDPDLTQYAIIMLDEAHERTIHTDVLFGLLKKTVQKRQDMKLIVTSATLDAVKFSQYFYEAPIFTIPGRTYPVEILYTKEPETDYLDASLITVMQIHLTEPPGDILVFLTGQEEIDTACEILYERMKSLGPDVPELIILPVYSALPSEMQTRIFDPAPPGSRKVVIATNIAETSLTIDGIYYVVDPGFVKQKVYNSKTGIDQLVVTPISQAQAKQRAGRAGRTGPGKCYRLYTERAYRDEMLTTNVPEIQRTNLASTVLSLKAMGINDLLSFDFMDAPPMETLITAMEQLYTLGALDDEGLLTRLGRRMAEFPLEPMLCKMLIMSVHLGCSEEMLTIVSMLSVQNVFYRPKDKQALADQKKAKFHQTEGDHLTLLAVYNSWKNNKFSNPWCYENFIQARSLRRAQDIRKQMLGIMDRHKLDVVSCGKSTVRVQKAICSGFFRNAAKKDPQEGYRTLIDQQVVYIHPSSALFNRQPEWVVYHELVLTTKEYMREVTTIDPRWLVEFAPAFFKVSDPTKLSKQKKQQRLEPLYNRYEEPNAWRISRAFRRR | 27 | – | – |
| SF3B1 (protein, UniProt O75533 1-1304, looked up) Splicing factor 3B subunit 1: MAKIAKTHEDIEAQIREIQGKKAALDEAQGVGLDSTGYYDQEIYGGSDSRFAGYVTSIAATELEDDDDDYSSSTSLLGQKKPGYHAPVALLNDIPQSTEQYDPFAEHRPPKIADREDEYKKHRRTMIISPERLDPFADGGKTPDPKMNARTYMDVMREQHLTKEEREIRQQLAEKAKAGELKVVNGAAASQPPSKRKRRWDQTADQTPGATPKKLSSWDQAETPGHTPSLRWDETPGRAKGSETPGATPGSKIWDPTPSHTPAGAATPGRGDTPGHATPGHGGATSSARKNRWDETPKTERDTPGHGSGWAETPRTDRGGDSIGETPTPGASKRKSRWDETPASQMGGSTPVLTPGKTPIGTPAMNMATPTPGHIMSMTPEQLQAWRWEREIDERNRPLSDEELDAMFPEGYKVLPPPAGYVPIRTPARKLTATPTPLGGMTGFHMQTEDRTMKSVNDQPSGNLPFLKPDDIQYFDKLLVDVDESTLSPEEQKERKIMKLLLKIKNGTPPMRKAALRQITDKAREFGAGPLFNQILPLLMSPTLEDQERHLLVKVIDRILYKLDDLVRPYVHKILVVIEPLLIDEDYYARVEGREIISNLAKAAGLATMISTMRPDIDNMDEYVRNTTARAFAVVASALGIPSLLPFLKAVCKSKKSWQARHTGIKIVQQIAILMGCAILPHLRSLVEIIEHGLVDEQQKVRTISALAIAALAEAATPYGIESFDSVLKPLWKGIRQHRGKGLAAFLKAIGYLIPLMDAEYANYYTREVMLILIREFQSPDEEMKKIVLKVVKQCCGTDGVEANYIKTEILPPFFKHFWQHRMALDRRNYRQLVDTTVELANKVGAAEIISRIVDDLKDEAEQYRKMVMETIEKIMGNLGAADIDHKLEEQLIDGILYAFQEQTTEDSVMLNGFGTVVNALGKRVKPYLPQICGTVLWRLNNKSAKVRQQAADLISRTAVVMKTCQEEKLMGHLGVVLYEYLGEEYPEVLGSILGALKAIVNVIGMHKMTPPIKDLLPRLTPILKNRHEKVQENCIDLVGRIADRGAEYVSAREWMRICFELLELLKAHKKAIRRATVNTFGYIAKAIGPHDVLATLLNNLKVQERQNRVCTTVAIAIVAETCSPFTVLPALMNEYRVPELNVQNGVLKSLSFLFEYIGEMGKDYIYAVTPLLEDALMDRDLVHRQTASAVVQHMSLGVYGFGCEDSLNHLLNYVWPNVFETSPHVIQAVMGALEGLRVAIGPCRMLQYCLQGLFHPARKVRDVYWKIYNSIYIGSQDALIAHYPRIYNDDKNTYIRYELDYIL | 6 | – | – |
| TRIM28 (protein, UniProt Q13263 2-835, looked up) Transcription intermediary …: AASAAAASAAAASAASGSPGPGEGSAGGEKRSTAPSAAASASASAAASSPAGGGAEALELLEHCGVCRERLRPEREPRLLPCLHSACSACLGPAAPAAANSSGDGGAAGDGTVVDCPVCKQQCFSKDIVENYFMRDSGSKAATDAQDANQCCTSCEDNAPATSYCVECSEPLCETCVEAHQRVKYTKDHTVRSTGPAKSRDGERTVYCNVHKHEPLVLFCESCDTLTCRDCQLNAHKDHQYQFLEDAVRNQRKLLASLVKRLGDKHATLQKSTKEVRSSIRQVSDVQKRVQVDVKMAILQIMKELNKRGRVLVNDAQKVTEGQQERLERQHWTMTKIQKHQEHILRFASWALESDNNTALLLSKKLIYFQLHRALKMIVDPVEPHGEMKFQWDLNAWTKSAEAFGKIVAERPGTNSTGPAPMAPPRAPGPLSKQGSGSSQPMEVQEGYGFGSGDDPYSSAEPHVSGVKRSRSGEGEVSGLMRKVPRVSLERLDLDLTADSQPPVFKVFPGSTTEDYNLIVIERGAAAAATGQPGTAPAGTPGAPPLAGMAIVKEEETEAAIGAPPTATEGPETKPVLMALAEGPGAEGPRLASPSGSTSSGLEVVAPEGTSAPGGGPGTLDDSATICRVCQKPGDLVMCNQCEFCFHLDCHLPALQDVPGEEWSCSLCHVLPDLKEEDGSLSLDGADSTGVVAKLSPANQRKCERVLLALFCHEPCRPLHQLATDSTFSLDQPGGTLDLTLIRARLQEKLSPPYSSPQEFAQDVGRMFKQFNKLTEDKADVQSIIGLQRFFETRMNEAFGDTKFSAVLVEPPPMSLPGAGLSSQELSGGPGDGP | 13 | 6 | 1 |
| SRP72 (protein, UniProt O76094 2-671, looked up) Signal recognition particle …: ASGGSGGVSVPALWSEVNRYGQNGDFTRALKTVNKILQINKDDVTALHCKVVCLIQNGSFKEALNVINTHTKVLANNSLSFEKAYCEYRLNRIENALKTIESANQQTDKLKELYGQVLYRLERYDECLAVYRDLVRNSQDDYDEERKTNLSAVVAAQSNWEKVVPENLGLQEGTHELCYNTACALIGQGQLNQAMKILQKAEDLCRRSLSEDTDGTEEDPQAELAIIHGQMAYILQLQGRTEEALQLYNQIIKLKPTDVGLLAVIANNIITINKDQNVFDSKKKVKLTNAEGVEFKLSKKQLQAIEFNKALLAMYTNQAEQCRKISASLQSQSPEHLLPVLIQAAQLCREKQHTKAIELLQEFSDQHPENAAEIKLTMAQLKISQGNISKACLILRSIEELKHKPGMVSALVTMYSHEEDIDSAIEVFTQAIQWYQNHQPKSPAHLSLIREAANFKLKYGRKKEAISDLQQLWKQNPKDIHTLAQLISAYSLVDPEKAKALSKHLPSSDSMSLKVDVEALENSAGATYIRKKGGKVTGDSQPKEQGQGDLKKKKKKKKGKLPKNYDPKVTPDPERWLPMRERSYYRGRKKGKKKDQIGKGTQGATAGASSELDASKTVSSPPTSPRPGSAATVSASTSNIIPPRHQKPAGAPATKKKQQQKKKKGGKGGW | 4 | – | – |
| PATL1 (protein, UniProt Q86TB9 1-770, looked up) Protein PAT1 homolog 1: MFRYESLEDCPLDEDEDAFQGLGEEDEEIDQFNDDTFGSGAVDDDWQEAHERLAELEEKLPVAVNEQTGNGERDEMDLLGDHEENLAERLSKMVIENELEDPAIMRAVQTRPVLQPQPGSLNSSIWDGSEVLRRIRGPLLAQEMPTVSVLEYALPQRPPQGPEDDRDLSERALPRRSTSPIIGSPPVRAVPIGTPPKQMAVPSFTQQILCPKPVHVRPPMPPRYPAPYGERMSPNQLCSVPNSSLLGHPFPPSVPPVLSPLQRAQLLGGAQLQPGRMSPSQFARVPGFVGSPLAAMNPKLLQGRVGQMLPPAPGFRAFFSAPPSATPPPQQHPPGPGPHLQNLRSQAPMFRPDTTHLHPQHRRLLHQRQQQNRSQHRNLNGAGDRGSHRSSHQDHLRKDPYANLMLQREKDWVSKIQMMQLQSTDPYLDDFYYQNYFEKLEKLSAAEEIQGDGPKKERTKLITPQVAKLEHAYKPVQFEGSLGKLTVSSVNNPRKMIDAVVTSRSEDDETKEKQVRDKRRKTLVIIEKTYSLLLDVEDYERRYLLSLEEERPALMDDRKHKICSMYDNLRGKLPGQERPSDDHFVQIMCIRKGKRMVARILPFLSTEQAADILMTTARNLPFLIKKDAQDEVLPCLLSPFSLLLYHLPSVSITSLLRQLMNLPQSAATPALSNPHLTAVLQNKFGLSLLLILLSRGEDLQSSDPATESTQNNQWTEVMFMATRELLRIPQAALAKPISIPTNLVSLFSRYVDRQKLNLLETKLQLVQGIR | 6 | – | – |
| SNX13 (protein, UniProt Q9Y5W8 1-968, looked up) Sorting nexin-13: MLTEASLSIWGWGSLGIVLFLITFGPFVIFYLTFYILCFVGGGLVVTLLFGKTNSEKYLEQCEHSFLPPTSPGVPKCLEEMKREARTIKIDRRLTGANIIDEPLQQVIQFSLRDYVQYWYYTLSDDESFLLEIRQTLQNALIQFATRSKEIDWQPYFTTRIVDDFGTHLRVFRKAQQKITEKDDQVKGTAEDLVDTFFEVEVEMEKEVCRDLVCTSPKDEEGFLRDLCEVLLYLLLPPGDFQNKIMRYFVREILARGILLPLINQLSDPDYINQYVIWMIRDSNCNYEAFMNIIKLSDNIGELEAVRDKAAEELQYLRSLDTAGDDINTIKNQINSLLFVKKVCDSRIQRLQSGKEINTVKLAANFGKLCTVPLDSILVDNVALQFFMDYMQQTGGQAHLFFWMTVEGYRVTAQQQLEVLLSRQRDGKHQTNQTKGLLRAAAVGIYEQYLSEKASPRVTVDDYLVAKLADTLNHEDPTPEIFDDIQRKVYELMLRDERFYPSFRQNALYVRMLAELDMLKDPSFRGSDDGDGESFNGSPTGSINLSLDDLSNVSSDDSVQLHAYISDTVYADYDPYAVAGVCNDHGKTYALYAITVHRRNLNSEEMWKTYRRYSDFHDFHMRITEQFESLSSILKLPGKKTFNNMDRDFLEKRKKDLNAYLQLLLAPEMMKASPALAHYVYDFLENKAYSKGKGDFARKMDTFVNPLRNSMRNVSNAVKSLPDSLAEGMTKMSDNMGKMSERLGQDIKQSFFKVPPLIPKTDSDPEHRRVSAQLDDNVDDNIPLRVMLLLMDEVFDLKERNQWLRRNIKNLLQQLIRATYGDTINRKIVDHVDWMTSPEQVADSVKRFRDAFWPNGILAEAVPCRDKSIRMRTRVAGKTKLLAIMPDELKHIIGAETTRKGILRVFEMFQHNQLNRRMVYVFLEGFLETLFPQYKFRELFNKLHSRSKQMQKYKQKLQTTQAPSLQKR | 5 | – | – |
| NHP2 (protein, UniProt Q9NX24 1-153, looked up) H/ACA ribonucleoprotein …: MTKIKADPDGPEAQAEACSGERTYQELLVNQNPIAQPLASRRLTRKLYKCIKKAVKQKQIRRGVKEVQKFVNKGEKGIMVLAGDTLPIEVYCHLPVMCEDRNLPYVYIPSKTDLGAAAGSKRPTCVIMVKPHEEYQEAYDECLEEVQSLPLPL | 6 | 6 | 1 |
